The source of these data is article PMC13202173, “Polyphosphate as a novel regulator of super-enhancer complexes: disruption of phase separation and gene expression”.

The target in this data set is MBP-mCherry-YY1 (Homo sapiens, UniProt P25490 1-414). In words: EMSA; 10 uM Zn2+, 100 mM KCl, no polyP; 2 uM protein, 25 nM probe; Motif EMSA: 10 mM Tris pH 7.5, 50 mM KCl, DTT, Tween 20, 5 mM MgCl2, ~25 nM probe, room temperature 30 min; G4 EMSA: 10 mM Tris-HCl pH 7.5, 100 mM KCl, 10 uM Zn, 1 mM DTT, 3% glycerol, room temperature 30 min; anisotropy: same without glycerol, on ice 30 min. Particulars: protein: recombinant; tags: N-MBP-TEV, C-mCherry; label: 5' IRDye 700 on strand 1; G4 as stated by authors, annealed with S4 in 100 mM KCl; S3/S4 otherwise pair with mismatches. A general note: A gel shift assay detects complexes by their altered migration in electrophoresis.
MBP-mCherry-YY1, sequence (P25490 whole entry): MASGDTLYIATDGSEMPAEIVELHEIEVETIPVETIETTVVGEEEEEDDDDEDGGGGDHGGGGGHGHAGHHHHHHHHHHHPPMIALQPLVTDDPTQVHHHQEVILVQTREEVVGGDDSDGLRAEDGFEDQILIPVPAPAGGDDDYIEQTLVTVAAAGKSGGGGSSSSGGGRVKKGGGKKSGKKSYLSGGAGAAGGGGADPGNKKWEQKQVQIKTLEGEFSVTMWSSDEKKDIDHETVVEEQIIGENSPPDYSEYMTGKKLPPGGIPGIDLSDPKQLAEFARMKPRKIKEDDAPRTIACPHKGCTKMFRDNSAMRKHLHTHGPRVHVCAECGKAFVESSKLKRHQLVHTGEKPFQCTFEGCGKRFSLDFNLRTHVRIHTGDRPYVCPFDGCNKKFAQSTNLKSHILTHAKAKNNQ

B1: human telomere G4 (hTEL) probe (structured_DNA)
DNA 1: AAAGGGTTAGTGTTAGTGTTAGGGAA
DNA 2: TTCCCTAACCCTAACCCTAACCCTTT
Regarding B1, the binding result is on record as “binds”.
